Assay results taken from the DeepSol protein solubility set.

assay: soluble on expression in E. coli; label from the status in PepcDB or PDB records

Soluble on expression in E. coli, not soluble:
MGSDKIHHHHHHMTTAADLSVFEQLDLPDTSLTRDTFAFAAQATPAFIHDHCVRSYVFARAHAQNQGLRAGTDYDDELLFVSCVLHDLGLSEEGSNGDQRFEVDGADIAAAFLRERGVEEERIAVAWDAIALHTSEGIASRKGTEVALAHLGIATDILGIQRESLPAGLADEVHALLPRQDLAHGFSDLIITQAVAKPHKASPTNFIGDLLRRHLPYGAYPNWYDLIDAAGWGDKPVGVTARRRAETPQQVGTLFMEYLEAGDVEGLVSLYEPNAHFVPTPGTHLVGTDAIREAMRQMVDSGARLKLEQREIRQVDDIALVSNNAILTGIGPEPVVSTTTEILRRQPDGGWVHAVDDPFFS
MGSDKIHHHHHHMMIKVFPKLRKQIWGSYRLGEMFGSNEKIGEVWLLSGHPLFITEAEGGLDLNEDMEKLIGKKLPRFPLLVKLISAEDWLSVQVHPNDDEAQELENEPWGKTEAWYFVEKGQIAIGEDPEKVKRALEDNSWDEALKKVEIEPGTFVFLPAGTVHALGPGGLLVEVQQASDLTYRVYDWGRGRELHIEKAFKVMKERKVEDLIVENFENFECEYFRIEKLERGKLEGFCAIVILENGVLDNRQVSPFETFIVPKGEKAELRATALVMRIGKFFEQWGDKK
MSNSSAHSSFGTSNDSFSSVQSVILPPVGPFGQKKRTFEYIGVTLVVDKLKLAEWMNGIGKLFGSAELRDNVTNLHMQLVPVIDTLKKVSHLSSEKTKKEIMTLIEEYKTLVVVCENMLDRMEKSADFHSTDMLNDPVLEKQE
MGSDKIHHHHHHLSSPMRLSFLAAAFAAPLVVSASGAGAAEPTRYPLTLQTCGQTITFDRAPSRVVSIGQSSTEILYLLGLADKVVGTALWVGPVIAGYEAVDAKVPRLADNDPSFESVVGKKPDLVTNQYQWQVGPKGVVATNAQFAELKIPVYTSPADCVGKDNSEGGDGLRTSRFTTDLIYQEIEDLARIFDVSERGEVLINDLKAREAAAKKKIASLRSPVSAVFWFSSADLDIDPYVAGSDGAPGYILSVLGITNVIKSEEEWPTVGWETIAKANPTIIVAGEMTRRRFPVDDIAVKKTFLANDPVTRLMPAVQEGRIVPLDAQAMNPTIRTIEGIEVVADAVIKAGLAQ
MDEGIRASGGIRACQTGKQKQGRKRPVTGKKRIVVGMSGGVDSSVTAWLLKQQGHEVIGVFMQNWEDDNDDEYCSIKQDALDAMSVADIVGIDMEIVNFAKEYKDRVFSYFLKEYSAGRTPNPDVLCNAEIKFKAFLDYAMELGADCIATGHYARKLEQDGTHYLMKAVDHTKDQSYFLYRLQQHQLAKAIFPLGDIRKTEVRRLAEEAGLPTAAKKDSTGICFIGERPFREFLQRYLPTSPGQMVTPDGKVVGEHIGLMYYTLGQRKGLTIGGSRDGNGEPWFVAGKDIPGNKLIVVQGHDHPLLLKPTLSMADLSWTLPDAPAPGEYSAKNRYRMADAACTLSPIVDGQASLTFQEKQWAVTPGQSAVLYHGDICLGGGIIQLEHHHHHH
EPGSSEGLGLLNVHTVLTGSKQLTKTEAVLNLNNQKAKVKGYEIHVGRSQVLDEQPLELDNGECDGAISECGQIMGTYLHGFFDEAEALNLITEWVNGTQVKQQDFEVLKEQGINRIADAIEQHMNLDFLFK
MAASGEEDMSELSPAAAPNLDWYEKPEETHAPEVDLETVIPPAQEPSNPAEPFCPRDLVPVVFPGPVSQEDCCQFTCELLKHILYQRHQLPLPYEQLKHFYRKAPQAEDTARKKAWLATEARNRKCQQALAELESVLSHLRDFFARTLVPQVLILLGGNALSPKEFYELDLSRLAPFGVDQGLNTAACLRRLFRAIFLADPFSELQTPPLMGTIVMVQGHRDCGEDWFQPKLNYRVPSRGHKLTVTLSCGRPSVPAMASEDYIWFQAPVTLKGFHE
MSTKADNRHLYLKVIERIKEDIKNGIYTEKEKLPSEFELSKKLGVSRATLREALRILEEEHVIIRRHGVGTFVHSKPLFLSGIEQLNSVTKMIEQANMTPGTIFLSSQVLMPSEDDTKRFHLAEGQELFYLERVRTADGQPIVYCIDKIPMNILPNSFSHQQESMFDLLEKNSGSVISYAVTDIEPIGYHDTISPVLECDPETALLLLKQTHYDQHDKPVLYSLNYFRADKFRFHVLRKRF
QDSKVFDPFLAAITPEIMPVKGKLAEKALPLIDQQLQGQPGSTVLLVSDGVNPATIKQYQAYFAGKPYQLLILAAGNTDIVSNNPMDLDSLQKLASQTNGRLVEVTVDNSDIEQLNRYVERNMQLNGESSMPWKD

Soluble on expression in E. coli, soluble:
SMKINFLRNKHKIHVQGTDLPDPIATFQQLDQEYKINSRLLQNILDAGFQMPTPIQMQAIPVMLHGRELLASAPTGSGKTLAFSIPILMQLKQPANKGFRALIISPTRELASQIHRELIKISEGTGFRIHMIHKAAVAAKKFGPKSSKKFDILVTTPNRLIYLLKQDPPGIDLASVEWLVVDESDKLFEDGKTGFRDQLASIFLACTSHKVRRAMFSATFAYDVEQWCKLNLDNVISVSIGARNS
MYFVDRTAVVLKPTARFLEWLKSTDENMPDLTIEQLRANCSVFLVPQFDEPEAVVSYFDERYRQIFEAELAGWDIDKDKWPQDMGLKAFWEFFDIEIHDIVLNMEEAELNITPVFDNMM
MRALSSLLLTLLLAGPAFAEPSAELQEPLAGWRYSGLLDRTEQDRVAYPTPPIDRGIQRNRTLIEGQLKAIGHLRQPHSLSVNGNPLNLYTDEQGRFARPYAFGAGSNSVEVRSSEGKPLKRVQFYEANLNKTPPRIRVVLGWDDPKAELDMHIITPDGQHAFFGHPGLTNGGGLDPDGVDGPGPEMFTMTAPLRGTYLIYVNYWGNFGSGGYNFDEGSNQNEVITSQINLILNENTVDEKRETFIVPMRAIGDLLLVKSFNYLEHHHHHH
GPGSMPIKAVVTDLDGTLLDPQHCISNYAAEVLKKIKEKGICFIVATGRPYAEVFNRIRHCHLAPDYIITSNGARIHDGAFNVVREHNLRPELVESLARVRTVKDPATGAELPKKFTTNIYRGAEWLTDKSIPEVSKAFHTDFQCTDLRERFYELQASELGDVHEIWFAGDHDELVLLDNALREKYPGDLCCTFSLPHLLDCVPAGVNKGNGVREAAEMLGLALDEVACFGDGMNDESMLQVTSTSFIMANAQQRLKDAVPHAQIIGSNADDGVAKKLEEMFFSA
MAVAGAVSGEPLVHWCTQQLRKTFGLDVSEEIIQYVLSIESAEEIREYVTDLLQGNEGKKGQFIEELITKWQKNDQELISDPLQQCFKKDEILDGQKSGDHLKRGRKKGRNRQEVPAFTEPDTTAEVKTPFDLAKAQENSNSVKKKTKFVNLYTREGQDRLAVLLPGRHPCDCLGQKHKLINNCLICGRIVCEQEGSGPCLFCGTLVCTHEEQDILQRDSNKSQKLLKKLMSGVENSGKVDISTKDLLPHQELRIKSGLEKAIKHKDKLLEFDRTSIRRTQVIDDESDYFASDSNQWLSKLERETLQKREEELRELRHASRLSKKVTIDFAGRKILEEENSLAEYHSRLDETIQAIANGTLNQPLTKLDRSSEEPLGVLVNPNMYQSPPQWVDHTGAASQKKAFRSSGFGLEFNSFQHQLRIQDQEFQEGFDGGWCLSVHQPWASLLVRGIKRVEGRSWYTPHRGRLWIAATAKKPSPQEVSELQATYRLLRGKDVEFPNDYPSGCLLGCVDLIDCLSQKQFKEQFPDISQESDSPFVFICKNPQEMVVKFPIKGNPKIWKLDSKIHQGAKKGLMKQNKAV
VVVEDSGASFGESLLDTTSEPGKILVKRISGGSGITVTDYGDQVEIEASVTDALSLMYSTSTGGPASIAANALTDFDLSGALTVNSVGTGLTKSAAGIQLAAGKSGLYQITMTVKNNTVTTGNYLLRVKYGSSDFVVACPASSLTAGGTISLLIYCNVLGVVSLDVLKFSLCNDGAALSNYIINITAAKIN
PAIDYKTAFHLAPIGLVLSRDRVIEDCNDELAAIFRCARADLIGRSFEVLYPSSDEFERIGERISPVMIAHGSYADDRIMKRAGGELFWCHVTGRALDRTAPLAAGVWTFEDLSATRRVA
